Assays:
[1] = 50% TFE, 5° C., previous study (29); cited from earlier work
[2] = RP-HPLC temperature profiling (hydrophobicity and self-association/dimerization parameter PA); assay type: physicochemical
Method: The retention time data for the peptides is shown in Table 5 which records retention times at 5° C., the maximal retention times and retention times at 80° C. during the temperature profiling. Temperatures of 5° C. and 80° C. were the lower and upper temperature limits of temperature profiling in RP-HPLC, representing dimerization of the peptides at 5° C. and the monomerization of peptides at 80° C. due to dissociation of the dimers. The maximal retention times represent the threshold points at which peptides transform from dimeric to monomeric form. Among the non-polar face substituted peptides, peptides with more hydrophobic substitutions (whether L- or D-amino acid substitutions) were more retained during RP-HPLC, i.e., peptides were eluted in the order of Lys, Gly, Ser, Ala, Val and Leu (Table 5). In addition, on the non-polar face, the L-analogs were always more retained than the D-diastereomers (Table 5, FIG. 5). […] In contrast, on the polar face, the elution order of peptides was not correlated with the order of amino acid side-chain hydrophobicity, e.g., PAL and PSL were more retained than PVL (Table 5); PSD was the most retained peptide among the D-amino acid substituted analogs on the polar face (Table 5).
The ability of the D-peptides to self-associate was determined by RP-HPLC temperature profiling. […] As expected, L- and D-peptide enantiomers were totally inseparable over this temperature range, since each pair of peptides is identical in sequence and must adopt identical conformations on interacting with the reversed-phase matrix, whether in an all-L- or all-D-conformation. RP-HPLC retention behavior has been frequently utilized to represent overall peptide hydrophobicity (53, 26). In the present study, the hydrophobicity of the three peptide pairs is in the order V681/D-V681>[…]>NKL/D-NKD (Table 4), which agrees with the change in hydrophobicity of the substitutions at position 13 in order of the most hydrophobic to the least hydrophobic amino acid residue (Val in V681>Ala in NA>Lys in NK) (54). […] For example, the retention times of peptides V681/D-V681 increase with increasing temperature (up to ˜30° C.) followed by a retention time decrease with a further temperature increase. […] Since peptide C is a monomeric random coil peptide in both aqueous and hydrophobic media, its retention behavior over the temperature range 5° C. to 80° C. represents only general temperature effects on peptide retention behavior, i.e., a linear decrease in peptide retention time with increasing temperature due to greater solute diffusivity and enhanced mass transfer between the stationary and mobile phases at higher temperatures (55). Thus, after normalization to the retention times of peptide C, the retention behavior of the peptides represents only peptide self-association ability. Note that the higher the PA value, the greater the self-association ability. […] From Table 4, it is also clear that the peptide retention times at 80° C. are dramatically lower than those at 5° C.
Elution times during RP-HPLC have frequently been utilized as a measure of relative hydrophobicity of peptide analogs (26, 31). In the current study, peptide analogs differed only by a single amino acid substitution on either the non-polar face or the polar face of V681; thus, the retention time data in Table 5 can be considered to reflect the hydrophobicity difference between peptide analogs. In order to more easily visualize the variation in hydrophobicity of the peptide analogs, the retention time data in Table 5 were normalized relative to that of the native peptide V681 at 5° C. and 80° C., respectively. Hydrophobicity relative to the native peptide V681 indicates an increase or decrease of the apparent peptide hydrophobicity with the different amino acid substitutions on the polar or non-polar face. […]

Ac-ELEKGGLEGEKGGKELEK-amide (Ac-ELEKGGLEGEKGGKELEK-NH2) [peptide C, reference compound]
[θ]222 [1]: −3,950
tR (min) 5° C. ([2]; RP-HPLC retention time at 5° C. during temperature profiling (measure of hydrophobicity)): 22.74 min
tR (min) 80° C. ([2]; RP-HPLC retention time at 80° C. during temperature profiling): 18.64 min
